“Also recorded” adds a separate entry of the source.
System: CT26 tumors
Test: Treatment of small (about 5 mm) established CT26 tumors in mice
Assay type: in vivo, Balb/c mice
Method: Balb/c mice were inoculated subcutaneously with 100,000 or 200,000 CT26 cells on day 1. […] On days 8, 12, 15 and 19 mice were administered PBS or 1 μg, 10 μg or 50 μg of rHMGN1. Tumor growth was monitored and plotted.
Small CT26 tumors were treated by a combination of one intraperitoneal (i.p.) injection of a suboptimal dose of cyclophosphamide or Cytoxan to reduce regulatory T cells (Treg), a key suppressor cell type in tumors, and four intratumoral (i.t.) administrations of HMGN1 within two weeks. Balb/c mice were subcutaneously inoculated with 100,000 or 200,000 CT26 cells on day 1. When the tumor size reached about 5 mm in diameter (by 4-6 days after tumor inoculation), mice were administered one dose of cyclophosphamide (100 mg/kg, i,p.) and/or HMGN1 protein (10 μg, intratumorally), twice a week for 2 weeks. PBS was administered i.t. or i.p. Tumor growth was monitored and plotted.

B1: High Mobility Group Nucleosome-binding protein 1 (protein, UniProt P05114 1-100, looked up)
Non-histone chromosomal …: MPKRKVSSAEGAAKEEPKRRSARLSAKPPAKVEAKPKKAAAKDKSSDKKVQTKGKRGAKGKQAEVANQETKEDLPAENGETKTEESPASDEAGEKEAKSD
notes: TLR4 ligand
With B1 the tumor growth (small (about 5 mm) CT26 tumors, intratumoral rHMGN1 1, 10 or 50 μg on days 8, 12, 15 and 19) was “slowed down tumor growth, but did not completely eradicate tumors; also recorded: inhibited tumor growth in a dose dependent manner” and the percent survival (small CT26 tumors, intratumoral rHMGN1) was “improvement in percent survival”.

— patent US11266746B2, “Therapeutic antitumor combination of a TLR4 ligand with other treatments” (THE UNITED STATES OF AMERICA, as represented by the …, priority 2016, dated 2022)
